Measurements from the domain aggregation screens of Martell et al. (2025).

Experiment: soluble fraction after stress (log2 fold change); higher = more stays soluble; pooled small domains, quantitative proteomics
Conditions: stress: pH 4
Outline: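 Small protein domains from pooled custom libraries were exposed to pH 4, then quantified with high-throughput quantitative proteomics. The fold change in how much of each domain remains soluble is read as aggregation propensity. It is given as log2, with higher values meaning more stayed soluble.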

| Sequence | soluble fraction (log2) |
| --- | --- |
| HMRDTDAEVTYKLNEPFKTMGSVSVEGKVLEFAGSKWFARAAEFASNTEVYPLAKNRVRLTFTFHGLTAP | 0.0243 |
| HMGGTAGKINAIGVNFRTGPSTSYTSLGLLGKDTAVTVIGTSGKWYKVTIVSTGKTGYVYATYVNLTP | -0.102 |
| HMIGELVVEDLAAASEINVDTIRYYQRLGLLEPPRRRGRRAVYDHTHLERLAEIRRLAGAGFTLAQIGRLK | -1.23 |
| HMNEKLNEYLNQVKAYLNTSDNKEDIIKELEAVVLEKAEKKYGQITDESISKILSEFGSPAEVAKEYS | -0.103 |
| HMLGYQALASAFRSKVEAGIWPIGEAIPSEARLSKEYGVAVGTIRQAIAELAEEGILIKRHGKSTMVSSG | 0.101 |
| HMKFPPELVEFIEGLSLLKPPLNYATVHRRAEKLAIKKGWASPSYSTVRNIIRKLSPALTTLAHEG | 0.22 |
| HMSVDVGMQLRKLREERKISMRELARLSGLSANALSMIERGLTSPSVSTLNKLAGALEVPITAFFRI | -0.00213 |
| HMGYPYDTVTTAKVNLRAKRSTSSDILKKIPEGATVTVKGVTGTFASVDYNGTSGYVKVDYLV | -0.196 |
| HMRGESFSTLVSILQEMSARKAAQVLNGLSEGLAVEVLRALPSDVAGDILGRMDAAKAAALMEQLST | -0.9 |
| HMILNWSEYTRSEIIELARDLSPDKYMIIDDINTYSKMKLLPSQAFIAEMFGSLRQFQKEAWGRE | -1.27 |
| HMADEDTILALAKEILASWPDKVEAYKNGNKGMLGLFMGELMKKSGGKANPKSASALIQKLLE | -0.231 |
| HMDAINITTYKGQITLTGTKTGTLVGIYNTAGMLVKSMMSKGEKLYFDNLPSGVYIIKVGEEEPRKVQVI | ≥ 0.43 |
| HMNSKYILLQVSDIPKTSLVLERQFGVTEYSVQDEHTLRIYDTSLDMAAVNKALVVQDIAVISSQL | -1.3 |
| HMSADDLVSRTQAIVAELKDLEGPLLPILHSVQEAFGHVPDEVKPVIAEALNLSRAEVHGVVSFYHDFRAH | -0.571 |
| HMNNYEGIVKSVSNSNVYIQVAGRTIGYTISPHTIIMVNGKNVPASELMPGQHVSYTNKGSKLSYININS | 0.205 |
| HMGKEYERALQQVTKSEIDSDEKLQQQMDALVNSPRISDKEDAWALLLVKKLRNEGVEWDELPDVLSERVQ | -0.856 |
| HMDKQGGWLTMAEAAEKLGVTHHVIRRLIKEKILPAEQVMRHAPHQIRIVDLESDAVAEALRHR | 0.155 |
| HMTPLFNQGEVLKGFVLQTGTNNRVLLQIGTAKVLADAQTPLKAGEQLTLRVEATGPRTVLQILG | 0.101 |
| HMITQQEFQQKLEALLSRAEAESFHIKKEEAESFFSGDELTGEQMKLVFDYLLSKKIIVEGYLK | 0.0629 |
| HMQPPLTPRELGVLQWAAEGKTTRDTSAILQIHQRTVEMHLKSAREKLDALNTTHAVARALAHGFILPPS | 0.102 |
| HMKDYTIDDIINSKVEHPLGGYQSRFKVGEYEVSVVGGRQTNHGDFIHTFELAIFDKNNNFLRNLTPVTID | -0.411 |
| HMVAMLDASYRGVMQTISTLLAQGNTERAYDEAVNARGQMSKQQWNNLANLIWERTGQKIDSGVSYK | -0.00781 |
| HMPLQLPEPMAELARNGETARLAEALKQGLDIDLRDGKGNTLLMIAAYQGRAETVAMLLKAGA | -1.42 |
| HMGDVSGFLRGVLADGPVPAKTVFSEASGAGYSRDQIQRAARKIGVERRKTGMAGGWVWELEP | -0.038 |
| HMGKDLLGYEVFAESGDLVGILKDVMWLPHSDVYVITKGGKEFLIPVIPEVVKGINHEQGVIVISPMEGLL | -0.572 |
| HMSHGFFTLQSDDLNLLRTVLEGHSSIGDIKIEGIQLVAYLKEPLNGAELNKILFEKGINLSYLVHRK | -1.52 |

| Sequence | soluble fraction (log2) |
| --- | --- |
| HMNEKFNVYPIPVYNNLNITGLSKPVTYLISSIDGKTIKNGVFQESIDVSDLKSGLYFLQVETKDPVKFIK | -0.999 |
| HMNSKKETLLSYLYNHSTWSSRNDLSNFLNVSTRQVTNYINEINKNETIVLSSNKGYKINPKFIGKN | 0.22 |
| HMDKMVAVPNVRGIEASEAEATLIAQGLFVEVEKSDSEDANVAYGEVYAQTPKAGNRVEEGTTITIKVRTE | 0.229 |
| HMDDATIKVNIAAKFLNAGNNLFVDIDTTVLEGRVLLTGLVDTQEVRIDAVRLVWEVEGIREVINEIEIG | -2.1 |
| HMQSLDGPSRAAIVLMAIGPDVAGELIKSFSPAEAQKVSSLLATVRSLDREVMIEVLDSFKNITEH | -0.5 |
| HMALTAEVLRSLIKHHGLGQSIQRTAKAVGLSASTVKKYFDRIAAANLTWQEAKSRTQEELIASLQPT | 0.107 |
| HMEPELLTTKQVASVMNIGEERARAILLSRGVQPVSLPWGKERKTLRWSRRAVMTVIDTLHAEAQAKAGV | 0.18 |
| HMSGENAVLTEGTMVTVRRGGETITATARKETVKQFLSRMDIIPGSREMVGIELMENSVMLTISD | -1.02 |
| HMNDREAAYEDLPDELVRVGQKVFIKSLETEGVIVQPPNKKGEVRVRSGNISTNVKRSDLGLPIEKP | 0.149 |
| HMAMDITLPLAEVRRQSLEQIERQYLNELMSKHLGRINRAAEAAGITTRQLHKLLTKYSIRKEDFK | 0.0354 |
| HMGIKSSASLQEAAEKAQSAYYDIEHSGVATAVDIQRAWVAMVAAQIDAGEKLDSGTITLYERLKTST | -0.0327 |
| HMGPNYYDILEIPTDASPSEITQAFRKKALEWHPDKNPNNLEEATSRFIEIVEAYRVLSSKDSKLQYDTG | -0.422 |
| HMTLQEFYARVGGDYNATLSRLPSEALVKKFILKYPGDPSFAQLKDALAAQDWELAFRASHTLKGVAQN | -0.493 |
| HMSGEIPFPPAFKPSADHIAIASEKGINIETELLNFRDYHQARGTKLIDWNSAFRVWLRNAR | -0.869 |
| HMTYMWTTDGVNLRSEPNTDSAVVTVLGVGTQVRMIGEEDGWVKVSFNDQEGYIRADFLTTE | -0.476 |
| HMLNWINSDVLERFNSLTKEKQKAIVADTETRLNGLSQARFKVAKSSSNERLIAEFAIEINEAIMRAAAL | -0.894 |
| HMDYDDLVPLDARGRLRLDGQDIILAFGRHRGRSIEEVHNHDKSYFDWLVSPAGGLEDEVIATLRERF | -1.4 |
| HMKRTFGEISPLPSGRYRARYRGPDGERYPAPVTFLSRMDAETWLSAQARKVSSGDWTPPVGVVA | 0.195 |
| HMTVLTDEIKVILISYIKENDFKKKHGNRKMMMTAQDMYDELVEKGYKISYPTVTQYVQKYRENETT | -0.0952 |
| HMSNAIDDAVEKVISENLDLAKERGLQSMGPLMGLVMKELGGTADGKAVSEALRRKISEISD | 0.114 |
| HMSASSTAPGSVTLRGAILTAWTAAGGERSKMGLPVGYEVRQADGTVTQTFEKGRISVSPTGTATI | -0.0391 |
| HMYRLSPSWRIVERDDGFEIYGGDDARFQLDPSPLVSRLAAGDAVTRDGLDPTGAIEFEQLLSAGMIRPEI | -0.829 |
| HMHNLYAPTQKEVDHARRVVEAAEAAAREGLGVVSLNGKMVDGPVIDRARLVLSRAELSGIRE | 0.274 |
| HMTDYVPTIGTKISKDFGSKGYFEGEVVSGPHNVTVEGDNMVVWKVQYEDGDREEMTASEIAHWKA | 0.22 |
| HMEKNKERIAFLKKRLEMYYEAEEKILQGQSYTIGSRTLTRTSLANVQSKIKELESEISALETRGN | -0.653 |
| HMALPASLSPREREIVSLISQGKTNSEIASLLYISVPTVKTHISNIFQKTGVSNRTSLLNRLRMS | -0.0542 |

| Sequence | soluble fraction (log2) |
| --- | --- |
| HMRNPLYAQVADYVMQQIAAGTYRPHQAIPTEWQLAKKLEVSQGTVRKGLDELVFKQILYRQQGVGTFVAD | 0.0353 |
| HMGQQPPVTEIYKNHDGNKDGLLEAGEVTGSRYARQFPRWDVNGDQKVSPQEVIAFRKRFGIAADGTLL | 0.0862 |
| HMVKSDLVGHRFILVEDVTPKLTPKYHYSGINWKLITTDNLVAGTRVEVIQVDVGKFHIKAIK | -0.82 |
| HMNNDSQYLATLQRYYAEHRVLPSYARMLPLLGFASKAAVKKVLERLEVVGMLERTEDGDWAPSERFFER | 0.0419 |
| HMANKQLQEKLKNYISENGSLSSAAKAIGLSPATLSTYLKDKYEGNVANVETRLTEIFETVEAANNLL | -0.313 |
| HMSDVTPDVVRALRKRLKLTQVQFGEIFGMTSKKVSAWEHGKAEPTEEQKQKIQSLLKENNEQ | 0.141 |
| HMNTLGTNIAKLRESQKLTQEELGKLSGVSRVSIYKIETGQSTPRDTTLQNIAEALHTTPSALRS | 0.22 |
| HMNTTLQLDTILRLEKNAHLLENFVRAGFTDSELGKLTDADLLQIGVPKIGDRRRLLAALAERAH | -0.29 |
| HMRPTVNETQIREVFRSILGREVDPEGLRHYLGQAAKGWSIDQIRADVNNSQEAHQRRAELARQAEELK | -0.217 |
| HMRYTAAEMAKKLDISRSYLYYLKEAGVVEIEKNENGKPIWTESVYNQLFEYIKKNHRTEEADNTQ | -0.61 |
| HMKVMTNAELGRIIKEARIARRMTQSEVVGDFITRNMLSQIENGNAAPSMRTLQYLMDVLDIHINIE | -0.751 |
| HMTMKNPNGYGSVINLGKGRRRPWAARVTTGLVYDEKKDKLIQRYKYIGYADTRKEAHQILAEYNAGLPI | 0.0906 |
| HMGPLPIDSRYFNNLVPYTGITHVNSVIPEAERHIGLTVVVKTGSTYSEYWYRTGVTNSSLELKT | -0.726 |
| HMSAGYTYQNYQQDLKSGNVQNIHIYLSEEMYSGNVKVIYKNNKSVTFTVTDVTIAEAEARQVGISPIIYE | -0.504 |
| HMEIYELTDQEQRVLEFIGEGMTNREIAKNMFLAEKTVKNYVSSLLRKLGLERRTQAAAMAVRLSV | -0.988 |
| HMSELDSYIGARLRMRRLMLGMSQEALGEKLSLTFQQIQKYEKGTNRVSASRLYELAQVLDVPVQFFFDGA | -1.39 |
| HMWMQKILGNYIAARRKELGMTQANLAEKIHVTDKAVSRWERGVGLPDIENLEALAKALEVSLVSLMQGKT | 0.22 |
| HMNKEIEDYVATYSSMKAKEAAAIFDTMTSDLDLVAKILEAMSADDRAKILEQMNEENAARLTKMMD | -0.654 |
| HMSQYELEDVEKQRLKFKNGDEKALWLLSDIYKDNSQSYEVRLAALRALSESRHPLIIFDIQSSVK | -0.898 |
| HMELDFLRLQIITGIHSGRLSNNEILMMYDTYSQKGGNSYVSRIVNDYVDENNIKEEGKRNARK | -0.636 |
| HMENPLVEVVVPVLNEERILKANIETLHHFLRTQPGFNFRITIADNGSTDKTQAIANDLTNSHAVIRV | -0.441 |
| HMKRIHLSDEEKTDLESLHYSSNDGKQRDRIKAVLLRSEGWTVPMISQALRIHETTVTRYLNDYREGKLKN | -0.143 |
| HMNKVQTFIIEKHIKEVFEHTNRTYYRSGQYYFQTRDEFSMALKRFLKDREPNKKNWIDSIINRA | 0.195 |
| HMTLAEEFNNLNGKVITRETLESLLVKAEKEQNSTISNRIRKVLQAYTADTFLIELQHTESA | -0.0269 |
